{"source": "patent US20220332804A1", "about": "(CSL INNOVATION, published 2022)", "binders": {"B1": {"name": "RF16-242 (antibody, human IgG4 S228P, lambda, V domains shown)", "VH": "EVQLLQSGAEVKKPGESLKISCKGSGYSFTSYWIGWVRQMPGKGLEWMGIIYPGDSDTRYSPSFQGQVTISADKSISTAYLQWSSLKASDTAMYYCARRGHYGDYFDYWGQGTLVTVSS", "VL": "SYELTQPPSVSVSPGQTARITCSGDALPKKYAYWYHQKSGQAPVLVIYEDRRRPSEIPERFSGSSSGTMATLTITGAQVEDEGVYFCYSRDRAGNQRVFGGGTQLTVLG", "notes": "pH-dependent anti-C2 antibody from a phage display library"}}, "test_in_all_cases": "SPR, antibody captured, C2 as analyte;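 note: biacore at 37 °C, anti-C2 mAbs held by immobilised goat anti-human IgG, C2 alanine or serine mutants injected, double-referenced sensorgrams fitted to a 1:1 kinetic or steady-state model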", "key": {"human C2 E267A": {"target": "T1, human C2 E267A (human, UniProt P06681 21-752)", "T1 sequence": "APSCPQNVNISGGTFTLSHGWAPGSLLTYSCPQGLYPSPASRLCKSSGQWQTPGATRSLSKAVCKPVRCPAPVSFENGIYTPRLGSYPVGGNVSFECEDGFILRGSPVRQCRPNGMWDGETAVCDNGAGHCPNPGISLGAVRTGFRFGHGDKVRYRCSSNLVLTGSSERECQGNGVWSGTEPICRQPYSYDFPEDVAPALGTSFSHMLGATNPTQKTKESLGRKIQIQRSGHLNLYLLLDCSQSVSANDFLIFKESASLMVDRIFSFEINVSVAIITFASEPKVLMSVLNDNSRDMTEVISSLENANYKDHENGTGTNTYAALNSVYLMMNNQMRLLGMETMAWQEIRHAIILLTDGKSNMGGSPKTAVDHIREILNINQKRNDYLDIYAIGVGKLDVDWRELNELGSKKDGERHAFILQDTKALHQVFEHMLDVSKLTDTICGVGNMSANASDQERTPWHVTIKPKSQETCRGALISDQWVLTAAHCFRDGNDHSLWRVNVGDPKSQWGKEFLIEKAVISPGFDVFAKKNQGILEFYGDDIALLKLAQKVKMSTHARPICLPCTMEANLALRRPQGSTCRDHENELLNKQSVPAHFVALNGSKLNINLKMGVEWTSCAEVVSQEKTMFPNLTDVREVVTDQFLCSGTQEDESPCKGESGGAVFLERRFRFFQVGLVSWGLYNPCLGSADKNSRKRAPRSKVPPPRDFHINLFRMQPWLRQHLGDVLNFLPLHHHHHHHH", "description": "(§1) Surface plasmon resonance (SPR, Biacore) was used for all binding affinity analyses. In brief, goat anti-human IgG was directly immobilised onto the carboxymethyl dextran surface of CM5 sensorchips to approximately 12,000 RU using standard NHS/EDC chemistry at pH 5. The immobilised antibody surface was pre-conditioned with ten injections of polyclonal human IgG (Privigen 60 s) prepared at 1 μg/mL. Ligands (anti-C2 mAbs) were captured at the beginning of each cycle as described below. An adjacent spot or flow cell in which only Polyclonal IgG was capture was used as a reference surface. The goat anti-human IgG Fc antibody surface was regenerate in 100 mM H3PO4, injected for 45 seconds at the end of each cycle. Experiments were performed at 37° C. and the flow rate of each experiment was kept constant at 30 μL/min.\n(§2) Sensogram data was double-referenced against a reference anti-IgG surface (i.e. minus anti-C2 mAb) and blank buffer injections obtained within each experiment. The binding data was fit to 1:1 (kinetic or steady-state) model using local Rmax and null refraction index (RI=0) when appropriate. Buffers and solutions were filtered (0.22 μm) prior to use."}, "human C2 A472S": {"target": "T2, human C2 A472S (human, UniProt P06681 21-752)", "T2 sequence": "T1 sequence with A247E, A452S", "description": "as §1, §2"}, "human C2 R493A": {"target": "T3, human C2 R493A (human, UniProt P06681 21-752)", "T3 sequence": "T1 sequence with A247E, R473A", "description": "as §1, §2"}, "human C2 L620A": {"target": "T4, human C2 L620A (human, UniProt P06681 21-752)", "T4 sequence": "T1 sequence with A247E, L600A", "description": "as §1, §2"}}, "note": "Residue numbers refer to the chain shown, from its start."}
{"binder": "B1", "values": [{"measurement": "Kd", "setting": "human C2 E267A", "value": 12.1, "unit": "nM"}, {"measurement": "Kd", "setting": "human C2 A472S", "value": 51.1, "unit": "nM"}, {"measurement": "Kd", "setting": "human C2 R493A", "value": 7.2, "unit": "nM"}, {"measurement": "Kd", "setting": "human C2 L620A", "value": 8, "unit": "nM"}]}
